The values below come from article PMC6473903, “Isoform-Specific NO Synthesis by Arabidopsis thaliana Nitrate Reductase” (Plants, 2019).

Data set [1] addresses T1, Arabidopsis thaliana NIA2-Mo-heme fragment (residues 1-625) (Arabidopsis thaliana) (UniProt P11035).
T1 sequence: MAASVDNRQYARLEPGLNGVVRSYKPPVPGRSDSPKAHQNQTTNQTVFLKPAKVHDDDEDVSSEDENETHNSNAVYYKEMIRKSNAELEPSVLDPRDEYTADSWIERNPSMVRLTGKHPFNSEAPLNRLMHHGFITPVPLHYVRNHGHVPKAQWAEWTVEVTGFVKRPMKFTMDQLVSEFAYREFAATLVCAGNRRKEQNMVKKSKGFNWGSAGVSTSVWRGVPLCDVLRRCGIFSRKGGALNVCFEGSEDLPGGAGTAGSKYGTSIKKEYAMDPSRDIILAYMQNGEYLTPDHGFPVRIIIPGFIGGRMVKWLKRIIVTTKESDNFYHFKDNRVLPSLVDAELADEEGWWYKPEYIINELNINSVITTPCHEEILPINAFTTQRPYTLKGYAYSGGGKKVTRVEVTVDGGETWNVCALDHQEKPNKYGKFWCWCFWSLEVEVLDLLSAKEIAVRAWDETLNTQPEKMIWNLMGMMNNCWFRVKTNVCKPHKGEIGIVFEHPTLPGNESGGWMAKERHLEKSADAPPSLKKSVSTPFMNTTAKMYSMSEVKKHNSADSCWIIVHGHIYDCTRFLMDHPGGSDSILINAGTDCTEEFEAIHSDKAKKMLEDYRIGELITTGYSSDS

Substrate in data set [2]: O=NO
Kind of data set: BV:nitrite steady-state assay, A595. The conditions noted are these: reduced benzyl viologen as electron donor, pH 7.5, 22-25 °C, anaerobic. The data set is classed as biochemical, Arabidopsis thaliana. An excerpt: BV:nitrite steady-state assay, A595 on NIA1-Mo

Substrate in data set [3]: O=NO
Description: BV:nitrite steady-state assay, A595. The data set is classed as biochemical, Arabidopsis thaliana. The conditions noted are these: reduced benzyl viologen as electron donor, pH 7.5, 22-25 °C, anaerobic. An excerpt:
BV:nitrite steady-state assay, A595 on NIA2-Mo-heme
This is another data set of the same source.

B1: Arabidopsis thaliana NIA2-FAD fragment (residues 626-917) (domain or fragment)
chain: SSPNNSVHGSSAVFSLLAPIGEATPVRNLALVNPRAKVPVQLVEKTSISHDVRKFRFALPVEDMVLGLPVGKHIFLCATINDKLCLRAYTPSSTVDVVGYFELVVKIYFGGVHPRFPNGGLMSQYLDSLPIGSTLEIKGPLGHVEYLGKGSFTVHGKPKFADKLAMLAGGTGITPVYQIIQAILKDPEDETEMYVIYANRTEEDILLREELDGWAEQYPDRLKVWYVVESAKEGWAYSTGFISEAIMREHIPDGLDGSALAMACGPPPMIQFAVQPNLEKMQYNIKEDFLIF
B1: in data set [1], the apparent kcat of the steady-state NADH:nitrate assay of re-constituted NIA2 (100 nM NIA2-Mo-heme + 5 µM NIA2-FAD, ratio 1:50) was 13.4 s⁻¹.

B2: NIA1-Mo (Arabidopsis thaliana) (protein)
chain: MATSVDNRHYPTMNGVAHAFKPPLVPSPRSFDRHRHQNQTLDVILTETKIVKETEVITTVVDSYDDSSSDDEDESHNRNVPYYKELVKKSNSDLEPSILDPRDESTADSWIQRNSSMLRLTGKHPFNAEAPLPRLMHHGFITPVPLHYVRNHGAVPKANWSDWSIEITGLVKRPAKFTMEELISEFPSREFPVTLVCAGNRRKEQNMVKQTIGFNWGSAGVSTSLWKGIPLSEILRRCGIYSRRGGALNVCFEGAEDLPGGGGSKYGTSIKKEMAMDPARDIILAYMQNGELLTPDHGFPVRVIVPGFIGGRMVKWLKRIIVTPQESDSYYHYKDNRVLPSLVDAELANSEAWWYKPEYIINELNINSVITTPGHAEILPINAFTTQKPYTLKGYAYSGGGKKVTRVEVTLDGGDTWSVCELDHQEKPNKYGKFWCWCFWSLDVEVLDLLSAKDVAVRAWDESFNTQPDKLIWNLMGMMNNCWFRIRT
notes: Moco domain only, residues 1-488; His-tagged, pQE80L, E. coli TP1004
Consider B2, for which, in data set [2], the Michaelis constant (Km) stood at 35.3 ± 3.2 µM and the kcat turned out to be 138 ± 2.5 s⁻¹.

B3: NIA2-Mo-heme (Arabidopsis thaliana) (protein)
chain: MAASVDNRQYARLEPGLNGVVRSYKPPVPGRSDSPKAHQNQTTNQTVFLKPAKVHDDDEDVSSEDENETHNSNAVYYKEMIRKSNAELEPSVLDPRDEYTADSWIERNPSMVRLTGKHPFNSEAPLNRLMHHGFITPVPLHYVRNHGHVPKAQWAEWTVEVTGFVKRPMKFTMDQLVSEFAYREFAATLVCAGNRRKEQNMVKKSKGFNWGSAGVSTSVWRGVPLCDVLRRCGIFSRKGGALNVCFEGSEDLPGGAGTAGSKYGTSIKKEYAMDPSRDIILAYMQNGEYLTPDHGFPVRIIIPGFIGGRMVKWLKRIIVTTKESDNFYHFKDNRVLPSLVDAELADEEGWWYKPEYIINELNINSVITTPCHEEILPINAFTTQRPYTLKGYAYSGGGKKVTRVEVTVDGGETWNVCALDHQEKPNKYGKFWCWCFWSLEVEVLDLLSAKEIAVRAWDETLNTQPEKMIWNLMGMMNNCWFRVKTNVCKPHKGEIGIVFEHPTLPGNESGGWMAKERHLEKSADAPPSLKKSVSTPFMNTTAKMYSMSEVKKHNSADSCWIIVHGHIYDCTRFLMDHPGGSDSILINAGTDCTEEFEAIHSDKAKKMLEDYRIGELITTGYSSDS
notes: N-terminal Moco + hinge 1 + heme domain fragment, residues 1-625; E. coli TP1004, Ni-NTA and SEC purified
Take B3: in data set [3], the Km was found to be 13.7 ± 3.3 µM and the kcat worked out at 1.8 ± 0.3 s⁻¹.

B4: NIA2-Mo-heme (Arabidopsis thaliana; H600A) (protein)
chain: MAASVDNRQYARLEPGLNGVVRSYKPPVPGRSDSPKAHQNQTTNQTVFLKPAKVHDDDEDVSSEDENETHNSNAVYYKEMIRKSNAELEPSVLDPRDEYTADSWIERNPSMVRLTGKHPFNSEAPLNRLMHHGFITPVPLHYVRNHGHVPKAQWAEWTVEVTGFVKRPMKFTMDQLVSEFAYREFAATLVCAGNRRKEQNMVKKSKGFNWGSAGVSTSVWRGVPLCDVLRRCGIFSRKGGALNVCFEGSEDLPGGAGTAGSKYGTSIKKEYAMDPSRDIILAYMQNGEYLTPDHGFPVRIIIPGFIGGRMVKWLKRIIVTTKESDNFYHFKDNRVLPSLVDAELADEEGWWYKPEYIINELNINSVITTPCHEEILPINAFTTQRPYTLKGYAYSGGGKKVTRVEVTVDGGETWNVCALDHQEKPNKYGKFWCWCFWSLEVEVLDLLSAKEIAVRAWDETLNTQPEKMIWNLMGMMNNCWFRVKTNVCKPHKGEIGIVFEHPTLPGNESGGWMAKERHLEKSADAPPSLKKSVSTPFMNTTAKMYSMSEVKKHNSADSCWIIVHGHIYDCTRFLMDHPGGSDSILINAGTDCTEEFEAIASDKAKKMLEDYRIGELITTGYSSDS
notes: as for B3
Consider B4, for which, in data set [3] (heme-coordinating His mutated), the Km turned out to be 10.3 ± 1.2 µM and the kcat was determined as 1.2 ± 0.02 s⁻¹.
